Assay results from patent US7326418B2, “Identification of novel factors that block programmed cell death or apoptosis by targeting JNK” (University of Chicago, priority 2001, dated 2008).

Key:
MEKK4 = target: T1, MEKK4 (Mus musculus, UniProt O08648); test: GST pull-down, GST-Gadd45β beads with in vitro translated 35S-labeled MEKK4; format: binding, murine
T1 construct: plasmids encoding full-length (FL) human ASK1, MEKK4, JNKK1, and JNKK2; made in house; host or cells: TNT coupled reticulocyte lysate (Promega), in vitro transcription/translation from pBS
Protocol: (§1) To confirm the above interactions, in vitro, GST pull-down experiments were performed. pBluescript (pBS) plasmids encoding full-length (FL) human ASK1, MEKK4, JNKK1, and JNKK2, or polypeptides derived from the amino- or carboxy-terminal portions of ASK1 (i.e. N-ASK1, spanning from amino acids 1 to 756, and C-ASK1, spanning from amino acids 648 to 1375) were transcribed and translated in vitro using the TNT coupled retyculocyte lysate system (Promega) in the presence of ^35S-methionine. 5 μl of each translation mix were incubated, in vitro, with sepharose-4B beads that had been coated with either purified glutathione-S-transferase (GST) polypeptides or GST-Gadd45β proteins. The latter proteins contained FL murine Gadd45β directly fused to GST. Binding assays were performed according to standard procedures, and ^35S-labeled proteins that bound to beads, as well as 2 μl of each in vitro translation mix (input), were then resolved by SDS polyacrylamide gel electrophoresis. Asterisks indicate the intact translated products. […] Thus, GST pull-down experiments confirmed the strong interaction between Gadd45β and JNKK2 observed in vivo, as well as the weaker interactions of Gadd45β with other kinases in the JNK pathway. These assays also uncovered a weak association between Gadd45β and JNKK1. […]

ASK1 = target: T2, ASK1 (Homo sapiens, UniProt Q99683); test: GST pull-down, GST-Gadd45β beads with in vitro translated 35S-labeled ASK1; format: binding; parameters: plasmids encoding full-length (FL) human ASK1, MEKK4, JNKK1, and JNKK2; made in house; host or cells: TNT coupled reticulocyte lysate (Promega), in vitro transcription/translation from pBS
T2 sequence (Q99683 1-1374): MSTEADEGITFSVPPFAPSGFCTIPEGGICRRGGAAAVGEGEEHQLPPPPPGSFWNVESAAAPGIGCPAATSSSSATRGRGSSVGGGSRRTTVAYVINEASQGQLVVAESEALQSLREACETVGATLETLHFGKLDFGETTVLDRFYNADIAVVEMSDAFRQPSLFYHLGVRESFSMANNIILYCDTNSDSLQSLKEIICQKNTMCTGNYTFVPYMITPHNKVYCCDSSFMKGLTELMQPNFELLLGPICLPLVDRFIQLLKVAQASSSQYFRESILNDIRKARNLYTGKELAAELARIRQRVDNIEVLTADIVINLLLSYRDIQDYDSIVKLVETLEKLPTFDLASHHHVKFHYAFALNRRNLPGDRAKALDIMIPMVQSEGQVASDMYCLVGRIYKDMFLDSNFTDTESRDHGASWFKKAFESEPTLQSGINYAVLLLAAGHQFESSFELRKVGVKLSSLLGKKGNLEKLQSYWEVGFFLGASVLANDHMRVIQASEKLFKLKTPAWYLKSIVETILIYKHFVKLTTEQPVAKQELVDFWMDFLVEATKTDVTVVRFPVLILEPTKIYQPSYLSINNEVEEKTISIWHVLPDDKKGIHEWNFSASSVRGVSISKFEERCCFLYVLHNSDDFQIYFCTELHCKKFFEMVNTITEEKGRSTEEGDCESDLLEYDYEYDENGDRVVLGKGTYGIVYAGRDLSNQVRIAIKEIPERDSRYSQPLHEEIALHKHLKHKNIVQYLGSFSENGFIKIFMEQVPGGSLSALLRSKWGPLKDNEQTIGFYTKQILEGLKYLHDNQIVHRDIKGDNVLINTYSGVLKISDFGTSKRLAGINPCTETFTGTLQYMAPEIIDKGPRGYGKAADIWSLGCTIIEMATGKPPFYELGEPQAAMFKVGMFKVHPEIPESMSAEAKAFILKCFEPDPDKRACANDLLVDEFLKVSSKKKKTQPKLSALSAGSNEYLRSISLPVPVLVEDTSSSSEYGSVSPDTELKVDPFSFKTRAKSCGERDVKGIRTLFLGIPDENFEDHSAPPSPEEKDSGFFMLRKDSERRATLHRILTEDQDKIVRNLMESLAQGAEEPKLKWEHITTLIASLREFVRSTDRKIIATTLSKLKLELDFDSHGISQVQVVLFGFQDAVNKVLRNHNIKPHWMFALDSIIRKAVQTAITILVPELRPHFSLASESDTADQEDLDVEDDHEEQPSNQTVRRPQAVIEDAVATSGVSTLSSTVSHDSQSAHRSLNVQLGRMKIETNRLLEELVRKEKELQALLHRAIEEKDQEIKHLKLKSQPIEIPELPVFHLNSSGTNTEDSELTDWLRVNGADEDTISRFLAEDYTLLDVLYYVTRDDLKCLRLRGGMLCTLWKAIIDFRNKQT
Protocol: as §1

T1 sequence (O08648 whole entry): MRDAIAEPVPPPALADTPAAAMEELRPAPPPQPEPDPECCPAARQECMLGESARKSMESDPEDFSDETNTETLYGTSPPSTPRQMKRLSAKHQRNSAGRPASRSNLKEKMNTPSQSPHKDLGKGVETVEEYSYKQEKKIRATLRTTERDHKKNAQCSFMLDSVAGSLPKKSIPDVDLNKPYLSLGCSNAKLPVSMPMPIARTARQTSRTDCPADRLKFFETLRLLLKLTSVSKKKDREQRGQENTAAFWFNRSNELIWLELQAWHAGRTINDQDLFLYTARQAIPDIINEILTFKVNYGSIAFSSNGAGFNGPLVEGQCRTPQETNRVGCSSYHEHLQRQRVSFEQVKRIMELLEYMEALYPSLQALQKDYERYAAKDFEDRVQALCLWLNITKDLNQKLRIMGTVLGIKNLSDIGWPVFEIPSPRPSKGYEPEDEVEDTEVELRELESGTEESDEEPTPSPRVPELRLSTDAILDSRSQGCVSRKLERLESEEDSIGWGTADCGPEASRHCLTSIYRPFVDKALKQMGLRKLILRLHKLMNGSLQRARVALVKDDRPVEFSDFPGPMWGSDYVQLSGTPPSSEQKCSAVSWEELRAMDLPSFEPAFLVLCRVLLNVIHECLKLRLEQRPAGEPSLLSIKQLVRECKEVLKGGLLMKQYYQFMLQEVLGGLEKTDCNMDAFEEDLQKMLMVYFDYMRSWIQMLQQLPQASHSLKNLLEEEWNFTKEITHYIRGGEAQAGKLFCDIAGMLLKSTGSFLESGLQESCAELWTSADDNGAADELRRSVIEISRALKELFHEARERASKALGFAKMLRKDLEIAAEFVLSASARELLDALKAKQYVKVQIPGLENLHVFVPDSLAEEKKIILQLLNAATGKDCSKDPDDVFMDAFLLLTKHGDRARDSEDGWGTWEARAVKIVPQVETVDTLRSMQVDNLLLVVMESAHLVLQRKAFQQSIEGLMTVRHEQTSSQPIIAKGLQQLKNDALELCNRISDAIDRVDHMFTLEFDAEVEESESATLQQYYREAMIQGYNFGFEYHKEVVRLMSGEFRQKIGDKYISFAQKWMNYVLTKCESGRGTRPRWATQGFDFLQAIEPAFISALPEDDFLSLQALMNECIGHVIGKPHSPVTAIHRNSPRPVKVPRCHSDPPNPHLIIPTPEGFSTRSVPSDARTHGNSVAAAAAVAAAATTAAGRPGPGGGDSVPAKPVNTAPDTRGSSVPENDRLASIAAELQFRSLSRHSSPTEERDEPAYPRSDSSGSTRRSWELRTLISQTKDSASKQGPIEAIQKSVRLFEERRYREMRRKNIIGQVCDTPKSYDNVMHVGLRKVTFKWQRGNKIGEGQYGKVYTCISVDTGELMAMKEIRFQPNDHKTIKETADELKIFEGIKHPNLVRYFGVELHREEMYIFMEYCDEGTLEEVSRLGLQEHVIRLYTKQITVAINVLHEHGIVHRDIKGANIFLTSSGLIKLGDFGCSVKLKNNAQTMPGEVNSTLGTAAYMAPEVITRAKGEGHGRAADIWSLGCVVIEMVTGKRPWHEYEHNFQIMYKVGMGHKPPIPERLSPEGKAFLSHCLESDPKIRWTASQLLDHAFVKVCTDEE

association with MEKK4 (MEKK4): less avidly than with JNKK2
association with ASK1 (ASK1): less avidly than with JNKK2
B1: GST-Gadd45β: full-length murine Gadd45β directly fused to GST, purified from E. coli (protein)
chain: MTLEELVASDNAVQKMQAVTAAVEQLLVAAQRQDRLTVGVYEAAKLMNVDPDSVVLCLLAIDEEEEDDIALQIHFTLIQSFCCDNDIDIVRVSGMQRLAQLLGEPAETLGTTEARDLHCLLVTNCHTDSWKSQGLVEVASYCEESRGNNQWVPYISLEER
modifications: left off: a dimerising Fc or GST
notes: full-length murine Gadd45β directly fused to GST, purified from E. coli
